Earlier results in article PMC8467547.

What was measured:
[1] = molecular target: IFNAR2 (Homo sapiens) (UniProt P48551)
[2] = molecular target: IFNAR1 (Homo sapiens) (UniProt P17181)
UniProt P17181, sequence (P17181 28-436): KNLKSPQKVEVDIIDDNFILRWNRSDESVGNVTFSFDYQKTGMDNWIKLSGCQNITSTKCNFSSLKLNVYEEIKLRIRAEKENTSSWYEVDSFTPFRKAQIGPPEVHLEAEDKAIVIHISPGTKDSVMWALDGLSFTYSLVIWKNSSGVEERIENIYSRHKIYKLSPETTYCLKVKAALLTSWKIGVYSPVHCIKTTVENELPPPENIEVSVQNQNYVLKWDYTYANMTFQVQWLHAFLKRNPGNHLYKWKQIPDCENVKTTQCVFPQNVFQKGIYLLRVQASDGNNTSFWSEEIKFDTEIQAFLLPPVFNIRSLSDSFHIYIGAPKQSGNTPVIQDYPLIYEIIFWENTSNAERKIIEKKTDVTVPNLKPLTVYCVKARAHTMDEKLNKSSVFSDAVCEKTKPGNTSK

UniProt P48551, sequence (P48551 27-243): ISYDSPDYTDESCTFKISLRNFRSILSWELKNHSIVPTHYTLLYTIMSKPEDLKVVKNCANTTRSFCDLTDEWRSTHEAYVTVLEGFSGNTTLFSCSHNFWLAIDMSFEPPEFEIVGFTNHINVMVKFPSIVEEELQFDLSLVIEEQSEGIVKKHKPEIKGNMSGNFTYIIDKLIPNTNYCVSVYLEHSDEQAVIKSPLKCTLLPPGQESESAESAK

## IFN-beta (from UniProt P01574)
[1]
  Kd: 0.2 nM
[2]
  Kd: 100 nM
